Results taken from US20130251714A1 (Sanofi, published 2013).

What was measured:
[1] = biological target: T1, N-terminal EC region of human CXCR5 (amino acids 1-59), synthetic peptide with a terminal biotin tag (human, UniProt P32302 1-59, terminal biotin tag); assay: Biacore, forward format: biotin-tagged CXCR5 N-terminal peptide (aa 1-59) on the chip, antibody as analyte
T1 construct: range 1-59; also called biotinylated human peptide
T1 sequence (peptide, looked up): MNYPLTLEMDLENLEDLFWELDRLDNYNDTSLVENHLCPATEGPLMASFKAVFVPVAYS
Method: The N-terminal EC region of CXCR5 (amino acids 1-59) from human and mouse were synthesized with a terminal biotin tag, and used in a forward format Biacore assay where the peptides were immobilized on a Biacore chip and then the kinetics of antibody interaction with the peptides on the chip were determined. The synthetic peptides were immobilized on a Biacore chip for approximately 20 response units (RUs'). Then the mAb's were exposed to the chip for kinetic measurements, following the manufacturer's recommendations (GE Healthcare, Piscataway, N.J.).

[2] = biological target: T2, cynomolgus CXCR5 (on cynomolgus B cells) (cynomolgus monkey, UniProt G8F5K4 1-372); assay: FACS on cynomolgus PBMCs (CD20+ B cells)
T2 construct: also called cyno CXCR5
T2 sequence: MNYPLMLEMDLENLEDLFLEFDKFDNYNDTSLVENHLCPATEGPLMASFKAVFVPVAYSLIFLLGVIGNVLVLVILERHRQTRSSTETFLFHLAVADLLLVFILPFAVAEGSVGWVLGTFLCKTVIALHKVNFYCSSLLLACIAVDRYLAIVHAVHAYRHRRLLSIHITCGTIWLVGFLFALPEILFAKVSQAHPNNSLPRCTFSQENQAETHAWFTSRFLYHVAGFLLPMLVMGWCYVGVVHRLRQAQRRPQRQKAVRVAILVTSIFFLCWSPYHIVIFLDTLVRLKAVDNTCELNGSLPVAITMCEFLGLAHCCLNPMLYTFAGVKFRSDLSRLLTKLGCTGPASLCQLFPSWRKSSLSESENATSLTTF
Method: Cynomolgus (cyno) monkey whole blood was obtained from Bioreclamation, Inc. (Hicksville, N.Y.). The blood was shipped in BD Cell Preparation Tubes (CPT) post-centrifugation. The cyno PBMCs contained in the plasma layer were removed from the CPT tube into a 50 ml tube leaving the gradient gel layer undisturbed. The tube was washed with 5 ml PBS to completely extract all the cells and the wash was added to a fresh 50 ml tube. The cyno PBMCs were centrifuged at 1200 RPM for 10 minutes at 4° C. The pellet was resuspended in 1 ml BD FACS Stain buffer (BD). One million cells were used per assay. One μg of mouse anti-human CXCR5 monoclonal antibody (purified) was added to 50 μl PBMC and allowed to bind for 20 minutes at 4° C. Cells were washed 2 times with BD Stain buffer. Fifty μl of second antibody, goat anti-mouse IgG-PE F_{(ab′)} (Beckman Coulter) diluted 1/100, was added to the cells and allowed to bind for 20 minutes at 4° C. Cells were washed three times with BD Stain buffer. A cocktail containing mouse anti-human CD20-FITC (BD) and CD4-APC (BD) at 1/20 dilution each was added to cells for a 20 minute incubation at 4° C. for assessment of B/T cell specificity. Cells were washed 3 times with BD Stain buffer, and resuspended in 250 μl BD Stain buffer and subjected to FACS analysis on a FACStarPlus. Commercial mouse anti-human CXCR5 mAb (R&D; MAB 190) was used as a positive control.

[3] = biological target: T3, un-tagged human CXCR5 N-terminal peptide (amino acids 1-59) (human, UniProt P32302 1-59); assay: Biacore, reverse format: mAb captured by pre-immobilized mouse anti-human IgG Fc antibody, un-tagged peptide as analyte
T3 construct: range 1-59
T3 sequence (peptide, looked up): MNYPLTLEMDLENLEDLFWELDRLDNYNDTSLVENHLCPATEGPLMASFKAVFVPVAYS
Method: Humanized SAR113244, a form of the 16D7 humanized variant, 16D7-HC1-LC3 that carries the S241P and L248E substitutions (substitutions introduced practicing known methods and reagents, using Kabat numbering), was captured on a Biacore chip by pre-immobilized mouse anti-human IgG Fc antibody, and then used in a reverse assay format Biacore assay where the kinetics of the un-tagged human CXCR5 N-terminal peptide (amino acids 1-59) interaction with the mAb's on the chip were determined.

B1: Mouse anti-hCXCR5 mAb clone 16D7 (antibody, V domains shown)
VH: QVQLKESGPGLVAPSQSLSITCTVSGFSLIDYGVNWIRQPPGKGLEWLGVIWGDGTTYYNSALKSRLSIRKDNSQSQVFLKMNSLQTDDTAMYYCARIVYWGQGTLVTVSA
VL: DIVMTQAAPSVAVTPRESVSISCRSSKSLLHSSGKTYLYWFLQRPGQSPQLLIYRMSNLASGVPDRFSGSGSGTAFTLRISRVEAEDVGVYYCMQHLEYPYTFGGGTKLEIK
notes: Mouse monoclonal antibody from a hybridoma; kappa light chain; also called murine 16D7; parent 16D7 antibody
With B1 as the binder, how does the Kd [1] read?
The Kd was 2.16 pM.

Does B1 bind [2]?
Result: no binding (tested: One µg of antibody added to 50 µl PBMC)

B2: 16D7-HC1-LC2 (antibody, V domains shown)
VH: QVQLKESGPGLVAPSESLSITCTVSGFSLIDYGVNWIRQPPGKGLEWLGVIWGDGTTYYNPSLKSRLSISKDNSKSQVFLKVTSLTTDDTAMYYCARIVYWGQGTLVTVSA
VL: DIVMTQAAPSVAVTPGASVSISCRSSKSLLHSSGKTYLYWFLQRPGQSPQLLIYRLSNLASGVPDRFSGSGSGTAFTLRISRVEAEDVGVYYCMQHLEYPYTFGGGTKLEIKR
notes: Humanized 16D7 on an IgG4 backbone / kappa; also called Version3
Which results are given for B2?
Kd [1]: 1.41 pM; binding result [2]: no binding

B3: 16D7-HC1-LC3 (antibody)
heavy: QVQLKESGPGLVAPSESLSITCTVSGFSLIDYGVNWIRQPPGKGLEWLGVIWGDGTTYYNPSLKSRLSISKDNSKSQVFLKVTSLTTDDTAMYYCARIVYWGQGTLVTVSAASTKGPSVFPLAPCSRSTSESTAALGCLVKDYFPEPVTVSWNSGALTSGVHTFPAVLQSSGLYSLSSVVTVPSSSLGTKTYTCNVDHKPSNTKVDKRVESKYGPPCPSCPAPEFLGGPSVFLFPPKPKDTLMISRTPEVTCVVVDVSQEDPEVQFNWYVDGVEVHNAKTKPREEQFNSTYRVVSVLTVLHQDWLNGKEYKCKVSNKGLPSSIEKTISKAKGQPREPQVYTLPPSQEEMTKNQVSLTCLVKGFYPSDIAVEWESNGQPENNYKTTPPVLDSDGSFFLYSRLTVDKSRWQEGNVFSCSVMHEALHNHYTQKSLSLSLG
light: DIVMTQAAPSVAVTPGASVSISCRSSKSLLHSSGKTYLYWFLQRPGQSPQLLIYRLSSLASGVPDRFSGSGSGTAFTLRISRVEAEDVGVYYCMQHLEYPYTFGGGTKLEIKRTVAAPSVFIFPPSDEQLKSGTASVVCLLNNFYPREAKVQWKVDNALQSGNSQESVTEQDSKDSTYSLSSTLTLSKADYEKHKVYACEVTHQGLSSPVTKSFNRGEC
notes: Humanized 16D7 on an IgG4 backbone / kappa; also called Version 4
B3 was tested. Which Kd [1] did it give?
The Kd was 1.21 pM.

Does B3 bind [2]?
Result: no binding

B4: 16D7-HC1-LC6 (antibody, V domains shown)
VH: QVQLKESGPGLVAPSESLSITCTVSGFSLIDYGVNWIRQPPGKGLEWLGVIWGDGTTYYNPSLKSRLSISKDNSKSQVFLKVTSLTTDDTAMYYCARIVYWGQGTLVTVSA
VL: DIVMTQSALSVAVTPGESVSISCRSSKSLLHSSGKTYLYWFLQRPGQSPQLLIYRLSSLASGVPDRFSGSGSGTAFTLKISRVEAEDVGVYYCMQHLEYPYTFGGGTKLEIKR
notes: Leader (residues 1-19) left out by comparison with the printed variable domains
B4 was tested. Which Kd [1] did it give?
Its Kd is 91.7 pM.

B5: 16D7-HC2-LC1 (antibody, V domains shown)
VH: EVQLKESGPGLVAPGGSLSITCTVSGFSLIDYGVNWIRQPPGKGLEWLGVIWGDGTTYYNAPLKGRLSISKDNSKSQVFLQMNSLKTDDTAMYYCARIVYWGQGTLVTVSS
VL: DIVMTQAAPSVAVTPGASVSISCRSSKSLLHSSGKTYLYWFLQRPGQSPQLLIYRMSNLASGVPDRFSGSGSGTAFTLRISRVEAEDVGVYYCMQHLEYPYTFGGGTKLEIKR
notes: Humanized 16D7 on an IgG4 backbone / kappa; also called Version 2
For B5, which Kd [1] is on record?
The Kd was 2.4 pM.

Does B5 bind [2]?
Result: no binding

B6: 16D7-HC3-LC4 (antibody, V domains shown)
VH: QVQLQESGPGLVAPSESLSITCTVSGFSLIDYGVNWIRQPPGKGLEWLGVIWGDGTTYYNPSLKSRLSISKDNSKSQVFLKMNSLTAADTAMYYCARIVYWGQGTLVTVSS
VL: DIVMTQSALSVAVTPGESVSISCRSSKSLLHSSGKTYLYWFLQRPGQSPQLLIYRMSNLASGVPDRFSGSGSGTAFTLKISRVEAEDVGVYYCMQHLEYPYTFGGGTKLEIKR
notes: Resurfaced 16D7; VL fused to IGKC, VH fused to IGHG4 lacking the C-terminal Lys; also called Version5
For B6, which Kd [1] is on record?
Its Kd is 4.92 pM.

B7: 16D7-HC3-LC5 (antibody, V domains shown)
VH: QVQLQESGPGLVAPSESLSITCTVSGFSLIDYGVNWIRQPPGKGLEWLGVIWGDGTTYYNPSLKSRLSISKDNSKSQVFLKMNSLTAADTAMYYCARIVYWGQGTLVTVSS
VL: DIVMTQSALSVAVTPGESVSISCRSSKSLLHSSGKTYLYWFLQRPGQSPQLLIYRLSNLASGVPDRFSGSGSGTAFTLKISRVEAEDVGVYYCMQHLEYPYTFGGGTKLEIKR
notes: Resurfaced 16D7; VL fused to IGKC, VH fused to IGHG4 lacking the C-terminal Lys; also called Version6
How did the Kd [1] turn out when B7 was run?
Its Kd is 184 pM.

B8: Humanized SAR113244 (16D7-HC1-LC3 carrying the S241P and L248E substitutions) (antibody)
heavy: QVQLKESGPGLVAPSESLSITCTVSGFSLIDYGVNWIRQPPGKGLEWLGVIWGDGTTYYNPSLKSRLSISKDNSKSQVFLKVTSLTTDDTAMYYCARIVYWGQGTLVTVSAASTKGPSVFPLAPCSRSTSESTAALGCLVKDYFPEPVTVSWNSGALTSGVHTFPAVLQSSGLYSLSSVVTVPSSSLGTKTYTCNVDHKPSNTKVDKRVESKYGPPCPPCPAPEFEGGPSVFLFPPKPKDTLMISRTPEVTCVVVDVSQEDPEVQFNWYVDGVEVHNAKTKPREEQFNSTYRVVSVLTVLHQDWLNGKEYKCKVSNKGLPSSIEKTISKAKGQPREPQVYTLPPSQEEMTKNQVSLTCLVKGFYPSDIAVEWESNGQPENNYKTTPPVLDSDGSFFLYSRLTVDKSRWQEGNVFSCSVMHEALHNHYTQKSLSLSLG
light: DIVMTQAAPSVAVTPGASVSISCRSSKSLLHSSGKTYLYWFLQRPGQSPQLLIYRLSSLASGVPDRFSGSGSGTAFTLRISRVEAEDVGVYYCMQHLEYPYTFGGGTKLEIKRTVAAPSVFIFPPSDEQLKSGTASVVCLLNNFYPREAKVQWKVDNALQSGNSQESVTEQDSKDSTYSLSSTLTLSKADYEKHKVYACEVTHQGLSSPVTKSFNRGEC
notes: Leader (residues 1-19) left out as for 16D7-HC1-LC3
For B8, which Kd [3] is on record?
Its Kd is 11.3 pM.

B9: mouse/human IgG4 chimeric 16D7 (antibody, V domains shown)
VH: QVQLKESGPGLVAPSQSLSITCTVSGFSLIDYGVNWIRQPPGKGLEWLGVIWGDGTTYYNSALKSRLSIRKDNSQSQVFLKMNSLQTDDTAMYYCARIVYWGQGTLVTVSA
VL: DIVMTQAAPSVAVTPRESVSISCRSSKSLLHSSGKTYLYWFLQRPGQSPQLLIYRMSNLASGVPDRFSGSGSGTAFTLRISRVEAEDVGVYYCMQHLEYPYTFGGGTKLEIKR
notes: 16D7 VH and VL on human IgG4 (IGHG4 lacking the C-terminal Lys) and kappa (IGKC); also called the hIgG4 chimera
How did the Kd [1] turn out when B9 was run?
Its Kd is 1.41 pM.

B10: 16D7-HC1-LC1 (antibody, V domains shown)
VH: QVQLKESGPGLVAPSESLSITCTVSGFSLIDYGVNWIRQPPGKGLEWLGVIWGDGTTYYNPSLKSRLSISKDNSKSQVFLKVTSLTTDDTAMYYCARIVYWGQGTLVTVSA
VL: DIVMTQAAPSVAVTPGASVSISCRSSKSLLHSSGKTYLYWFLQRPGQSPQLLIYRMSNLASGVPDRFSGSGSGTAFTLRISRVEAEDVGVYYCMQHLEYPYTFGGGTKLEIKR
notes: Humanized 16D7 on an IgG4 backbone / kappa; also called Version1
With B10 as the binder, how does the Kd [1] read?
Its Kd is 3.11 pM.

Does B10 bind [2]?
Result: no binding
